Results published in publication PMC10476280.
“And” between values parts separate entries of the source, which are not always exact repeats. Equal values may be shown once.

What was measured:
[1] = system: Scm3(HJURP) (Saccharomyces cerevisiae (W303, SBY3 derivative)); assay: single-molecule TIRFM residence assay; conditions: yeast whole cell extract, single-molecule TIRFM on surface-tethered DNA; buffer, salt, pH and temperature not given in the material
[2] = system: Cse4(CENP-A)-GFP (Saccharomyces cerevisiae (W303, SBY3 derivative)); assay: single-molecule TIRFM endpoint colocalization; conditions: yeast whole cell extract, single-molecule TIRFM on surface-tethered DNA; buffer, salt, pH and temperature not given in the material
[3] = system: Cse4(CENP-A)-GFP (Saccharomyces cerevisiae (W303, SBY3 derivative)); assay: single-molecule TIRFM endpoint colocalization; conditions: yeast whole cell extract, single-molecule TIRFM on surface-tethered DNA, buffer, salt, pH and temperature not given in the material
[4] = system: Ndc10-mCherry (CBF3 component) (Saccharomyces cerevisiae (W303, SBY3 derivative)); assay: single-molecule TIRFM endpoint colocalization; conditions: WT extract; yeast whole cell extract, single-molecule TIRFM on surface-tethered DNA; buffer, salt, pH and temperature not given in the material
[5] = system: histone H3 (Saccharomyces cerevisiae (W303, SBY3 derivative)); assay: single-molecule TIRFM endpoint colocalization; conditions: yeast whole cell extract, single-molecule TIRFM on surface-tethered DNA, buffer, salt, pH and temperature not given in the material

Row | Substance | binding signal (% DNA colocalized) ([3]; WT extract) | binding signal (% DNA colocalized) [3] | binding signal (% DNA colocalized) ([5]; low level) | further results
1 | CEN3 DNA (WT, ~750 bp) | 50 | 19.3 | 5.5 | binding signal (residences per DNA (45 min)) [1]: 0.57; binding signal (% DNA colocalized) [2]: 5 and 8; binding signal (% DNA colocalized) [4]: 70
2 | CEN7 DNA | 18 |  |  | 
3 | CEN9 DNA | 22 |  |  | 
4 | Widom-601 DNA |  |  |  | binding signal (% DNA colocalized) [5]: 7.1
5 | Widom-601-CDEIII hybrid |  | 3.1 | 4.1 | 
6 | alpha-sat CEN DNA |  | 1.7 |  | 
